In general, Kd refers to the concentration at which binding is half-saturated. A lower Kd goes with a tighter complex.

The target in one assay is Nsp9 (SARS-CoV-2, UniProt P0DTD1). The experiment in a line: fluorescence polarisation. The note with it: both partners purified.
Another assay deals with Nsp16 (SARS-CoV-2, UniProt P0DTD1 6799-7096). The experiment in a line: fluorescence polarisation. The conditions noted are these: both partners purified. For orientation: Polarisation of emitted light reports the rotation of a fluorescent probe.

Where no end group is shown, it is not given here. The star is where a group is joined. FITC = O=C1OC2(c3ccc(O)cc3Oc3cc(O)ccc32)c2ccc(NC(=S)*)cc21

As for AEGIDIGEMPSYDLVL (also called NKRF peptide) [NKRF_(8–23)], the binding result in the assay with Nsp9 is on record as “binds”.
Still for that read-out and setting: for {FITC}-AEGIDIGEMPSYDLVL [FITC-NKRF_(8–23)] the value was “binds”.
NQDMSAWFNLFADLDP (also called ICA1L peptide) [ICA1L_(450–465)] registered a Kd with Nsp16 of 30 µM.
On the same count and under the same terms, the figure for EDPLDSYLNFQALISP (also called FLJ43738 peptide) [FLJ43738_(76–91)] is 62 µM.
With MNIQEQGFPLDLGAS (also called Axin-1 peptide) [AXIN1_(1–15)], the binding result with Nsp9 is recorded as “binds”.
In the assay with Nsp9, FQGAWLGCPEPWEPLL (peptide, UniProt Q99466 1605-1620, looked up, also called NOTCH4 peptide) [NOTCH4_(1605–1620)] had a Kd of about 130 µM.

B1: DYRK1B_(395–410) (peptide)
peptide: PGHSPADYLRFQDLVL
notes: also called DYRK1B peptide; DYRK1B_(394–409)
For B1, in the assay with Nsp16, the Kd was determined as 56 µM.
Take PAHPDGFALGRAPLA (also called LMTK3 peptide) [LMTK3_(22–36)]: the binding result in the assay with Nsp9 is “binds”.

The values are drawn from article PMC10499821 (Nature Communications, 2023).
